Results on 2 molecules are retold here after patent US20130039916A1.

This experiment deals with "Bac-wt" human IL-23 (identical to elastikine in sequence, expressed in SF9 cells) (human) (UniProt P29460). In words: BIAcore SPR, antibody immobilised on CM5 chip, IL-23 in solution. (SPR reads the build-up and loss of mass on a sensor chip optically.)

Positions count from the first letter of the chain named.

B1: humanized anti-human IL-23p19 antibody 7G10 (antibody, human IgG1, kappa, V domains shown)
VH: QVQLVQSGAEVKKPGASVKVSCKASGYTFTSNVMHWVRQAPGQGLEWMGYINPYNDGTKYNEKFKGRVTMTTDTSTSTAYMELRSLRSDDTAVYYCARNWDVAYWGQGTLVTVSS
VL: DIQMTQSPSSLSASVGDRVTITCRASQSISDYLHWYQQKPGKAPKLLIYYASQSISGVPSRFSGSGSGTDFTLTISSLQPEDFATYYCQNGHSFPFTFGQGTKVEIKR
Regarding B1, the Kd (in general, the equilibrium constant for the complex coming apart) was determined as 10 nM.

B2: humanized anti-human IL-23p19 antibody 6H12 (antibody, human IgG1, kappa, V domains shown)
VH: B1 VH with T30N, S31R, N32Y, V33L, M34I, Y54N, D56A, K59N, V102Q
VL: B1 VL with A51T
B2 gave a dissociation constant Kd of 5.1 nM.
